Values of other authors as cited in PMC139967 (BMC Biochemistry, 2002).

What was measured:
[1] = system: calmodulin
[2] = not given; remark: listed apart in the source

B1: Myo1c: Myosin-1c, previously called myosin-Iβ, myr 2, or MI-110K; literature preparations (protein, UniProt O00159 1-1063, looked up)
Unconventional myosin-Ic: MALQVELVPTGEIIRVVHPHRPCKLALGSDGVRVTMESALTARDRVGVQDFVLLENFTSEAAFIENLRRRFRENLIYTYIGPVLVSVNPYRDLQIYSRQHMERYRGVSFYEVPPHLFAVADTVYRALRTERRDQAVMISGESGAGKTEATKRLLQFYAETCPAPERGGAVRDRLLQSNPVLEAFGNAKTLRNDNSSRFGKYMDVQFDFKGAPVGGHILSYLLEKSRVVHQNHGERNFHIFYQLLEGGEEETLRRLGLERNPQSYLYLVKGQCAKVSSINDKSDWKVVRKALTVIDFTEDEVEDLLSIVASVLHLGNIHFAANEESNAQVTTENQLKYLTRLLSVEGSTLREALTHRKIIAKGEELLSPLNLEQAAYARDALAKAVYSRTFTWLVGKINRSLASKDVESPSWRSTTVLGLLDIYGFEVFQHNSFEQFCINYCNEKLQQLFIELTLKSEQEEYEAEGIAWEPVQYFNNKIICDLVEEKFKGIISILDEECLRPGEATDLTFLEKLEDTVKHHPHFLTHKLADQRTRKSLGRGEFRLLHYAGEVTYSVTGFLDKNNDLLFRNLKETMCSSKNPIMSQCFDRSELSDKKRPETVATQFKMSLLQLVEILQSKEPAYVRCIKPNDAKQPGRFDEVLIRHQVKYLGLLENLRVRRAGFAYRRKYEAFLQRYKSLCPETWPTWAGRPQDGVAVLVRHLGYKPEEYKMGRTKIFIRFPKTLFATEDALEVRRQSLATKIQAAWRGFHWRQKFLRVKRSAICIQSWWRGTLGRRKAAKRKWAAQTIRRLIRGFVLRHAPRCPENAFFLDHVRTSFLLNLRRQLPQNVLDTSWPTPPPALREASELLRELCIKNMVWKYCRSISPEWKQQLQQKAVASEIFKGKKDNYPQSVPRLFISTRLGTDEISPRVLQALGSEPIQYAVPVVKYDRKGYKPRSRQLLLTPNAVVIVEDAKVKQRIDYANLTGISVSSLSDSLFVLHVQRADNKQKGDVVLQSDHVIETLTKTALSANRVNSININQGSITFAGGPGRDGTIDFTPGSELLITKAKNGHLAVVAPRLNSR
- calmodulins per Myo1c after calmodulin supplementation ([1]; calmodulin supplementation): ≤ 4
- calmodulins per Myo1c heavy chain ([1]; purified Myo1c): 2–3
- effect of Ca^2+ on in vitro motility: completely halts
- effect of Ca^2+ on ATPase activity [2]: increases
